For experiment [1], the target named is T1, recombinant antigen of the extracellular region of CD47 (Sino Biological, Cat: 12283-H08H) (human, UniProt Q08722 19-139).
T1 construct: extracellular domain; also called recombinant CD47 extracellular region; CD47 recombinant protein
As to the kind of experiment: Fortebio Octet QKe, antibody on AHC sensor, CD47 100 nM in solution. In general terms: In BLI a coated tip is dipped into the sample, and binding shifts an interference pattern.
Method: The affinity of the antibody was determined by Octet QKe instrument of Fortebio Company. […] The kinetic parameters were determined.

Experiment [2] concerns the target T1, recombinant antigen of the …. As to the kind of experiment: Fortebio BLI, recombinant CD47 extracellular region.
Experiment [3] concerns the target T2, CD47 on the surface of tumor cells (human, UniProt Q08722 19-323).
T2 construct: whole, on cells; Same protein as m4; also called CD47 antigen on the surface of U937 and CCRF cells; SKOV-3
As to the kind of experiment: FACS on CCRF cells.

The target of experiment [4] is T2, CD47 on the surface of tumor cells. As to the kind of experiment: FACS blocking assay on CCRF cells; blocked ligand FITC-labelled rhSIRPα-Fc.
For the next experiment, the target named is T3, CD47-His (human, UniProt Q08722 19-139, limits assumed).
T3 construct: not shown: His tag
As to the kind of experiment: Fortebio BLI.

The target of experiment [5] is T2, CD47 on the surface of tumor cells. As to the kind of experiment: FACS on U937 cells.
The target is the same in experiment [6]. As to the kind of experiment: FACS blocking assay on U937 cells; blocked ligand FITC-labelled rhSIRPα-Fc.
The target of experiment [7] is T1, recombinant antigen of the …. As to the kind of experiment: Fortebio BLI, antibody on AHC sensor, CD47 extracellular region 100 nM; Table 6 (heavy chain mutant series).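 Note: antibody held on the sensor through anti-human Fc capture, CD47 antigen in solution, association and dissociation phases each lasting 300 s.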
Method: (§1) The affinity between the obtained mutant antibody and the CD47 recombinant protein was determined by Fortebio. The antibody was immobilized on the surface of a sensor with the anti-human Fc capture antibody (AHC Sensor), and reacted with the recombinant antigen of the extracellular region of CD47 (with a working concentration of 100 nM) in the liquid phase. The duration for binding and dissociation was both 300 seconds. The kinetic parameters were determined.
Experiment [8] shares this target. As to the kind of experiment: Fortebio BLI, antibody on AHC sensor, CD47 extracellular region 100 nM.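 Note: antibody held on the sensor through anti-human Fc capture, CD47 antigen in solution, association and dissociation phases each lasting 300 s.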
Method: as §1
The target in a further experiment is T4, human PD-L1 on cells (human, UniProt Q9NZQ7 19-290).
T4 construct: whole, on cells; also called MC38-hPD-L1/hCD47 cells; A431 cells
T4 sequence (Q9NZQ7 19-290): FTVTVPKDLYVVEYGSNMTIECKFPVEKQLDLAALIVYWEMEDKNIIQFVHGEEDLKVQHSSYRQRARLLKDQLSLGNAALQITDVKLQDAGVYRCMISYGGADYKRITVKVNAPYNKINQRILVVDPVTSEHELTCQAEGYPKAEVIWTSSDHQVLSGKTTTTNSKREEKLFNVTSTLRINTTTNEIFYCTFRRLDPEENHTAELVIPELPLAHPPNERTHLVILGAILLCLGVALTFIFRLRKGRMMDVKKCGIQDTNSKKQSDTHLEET
As to the kind of experiment: flow cytometry on A431 cells. On the technique in general: Flow cytometry measures light scatter and fluorescence of single cells or particles in a stream.

Experiment [9] addresses T5, CD47 on the surface of human red blood cells (human, UniProt Q08722 19-323).
T5 construct: whole, on cells; Same protein as m3, on red blood cells; also called hRBC; RBC
As to the kind of experiment: FACS, hRBC, 500 nM.
Method: (§2) The difference between the binding of the mutant to CD47 on the surface of tumor cells and CD47 on the surface of red blood cells was evaluated.

The target in experiment [10] is T2, CD47 on the surface of tumor cells. As to the kind of experiment: FACS, tumor cells, 1 nM.
Method: as §2
Experiment [11] shares this target. As to the kind of experiment: flow cytometry on A431 cells.

B1: humanized 140 (hz140) (antibody, human IgG4 S228P, kappa, V domains shown)
VH: QVQLVQSGAEVKKPGASVKVSCKASGYKFTNYVMHWVRQAPGQRLEWMGYINPYNDGIKYNEKFTGRVTITRDTSASTAYMELSSLRSEDTAVYYCAREGDFYANYGRLGFAYWGQGTLVTVSS
VL: DIQMTQSPSSLSASVGDRVTITCRASQDITNYLNWYQQKPGKAPKLLIYYTSRLHSGVPSRFSGSGSGTDYTFTISSLQPEDIATYFCQQGDTFPRTFGGGTKVEIKR
notes: also called anti-CD47 monoclonal antibody; anti-CD47 sidearm monoclonal antibody
In general, Kd refers to the free concentration of one partner at which half of the binding sites on the other are occupied at equilibrium, for simple one-to-one binding. A word on the koff: it is the rate constant with which the complex falls apart. In general, kon refers to the second-order rate constant of association. Usually EC50 (read off the curve) stands for the midpoint of the concentration-response curve. A high value points to lower potency in that assay. For B1, the Kd stood at 1.89 nM in experiment [1], 0.688 nM in [2] and 1.5 nM in the experiment with CD47-His. Besides, the koff in [1] came to 0.000933 s⁻¹; in experiment [2], 0.00022 s⁻¹; in the experiment with CD47-His, 0.00037 s⁻¹. Moreover, the figures for the on-rate (kon) (in [1]; in experiment [2]; in the experiment with CD47-His) were 493000 M⁻¹ s⁻¹, 320000 M⁻¹ s⁻¹ and 247000 M⁻¹ s⁻¹, respectively. Moreover, the “EC50 (read off the curve)” value in experiment [3] was around 0.06 µg/mL; in experiment [5], around 0.2 µg/mL. Moreover, the “IC50 (read off the curve)” value in [4] and in [6] was around 0.3 µg/mL each time.

B2: hz140-H/hz182-L (antibody, V domains shown)
VH: QVQLVQSGAEVKKPGASVKVSCKASGYKFTNYVMHWVRQAPGQRLEWMGYINPYNDGIKYNEKFTGRVTITRDTSASTAYMELSSLRSEDTAVYYCAREGDFYANYGRLGFAYWGQGTLVTVSS
VL: DIQMTQSPSSLSASVGDRVTITCRASQDISNYLNWYQQKPGKAPKLLLYYTSRLHSGVPSRFSGSGSGTDYTLTISSLQPEDFATYFCQQGAGRPYTFGGGTKVEIK
notes: Hybrid antibody: heavy chain of hz140 with the light chain of hz182
As for B2, in [1], the Kd was determined as 7.03 nM, the koff amounted to 0.00108 s⁻¹ and the kon amounted to 154000 M⁻¹ s⁻¹. Further, the Kd in experiment [7] stood at 0.719 nM. In experiment [8], the koff was found to be 0.000226 s⁻¹ and the kon came out at 315000 M⁻¹ s⁻¹.

B3: anti-PD-L1 monoclonal antibody (hz182) (antibody, human IgG4 S228P, kappa, V domains shown)
VH: QLVQSGAEVKKPGATVKISCKVSGFNIKDIYMHWVQQAPGKGLEWMGRIDPANANTKYDPKFQDRVTITADTSTNTAYMELSSLRSEDTAVYYCASGQLGPLGFDYWGQGTTVTVSS
VL: DIQMTQSPSSLSASVGDRVTITCRASQDISNYLNWYQQKPGKAPKLLLYYTSRLHSGVPSRFSGSGSGTDYTLTISSLQPEDFATYFCQQGAGRPYTFGGGTKVEIKR
notes: also called humanized anti-human PD-L1 antibody; anti-PD-L sidearm monoclonal antibody
Take B3: the “EC50 (read off the curve)” value with human PD-L1 on cells was around 0.1 nM.

B4: h140Hm13/h140L (antibody, V domains shown)
VH: EVQLVQSGAEVKKPGASVKVSCKASGYKFTNYVMSWVRQAPGQRLEWMGYINPYNDAIKYNEKFTGRVTITRDTSASTAYMELSSLRSEDTAVYYCAREGDFYANYGRLGFAYWGQGTLVTVSS
VL: DIQMTQSPSSLSASVGDRVTITCRASQDITNYLNWYQQKPGKAPKLLIYYTSRLHSGVPSRFSGSGSGTDYTFTISSLQPEDIATYFCQQGDTFPRTFGGGTKVEIK
notes: Heavy chain mutant 140Hm13 with the unmutated light chain of hz140
In the case of B4, the “FACS (MFI)” value was 27400 MFI in experiment [9] and 102000 MFI in experiment [10].

B5: h140Hm13/h140Lm5 (antibody, V domains shown)
VH: EVQLVQSGAEVKKPGASVKVSCKASGYKFTNYVMSWVRQAPGQRLEWMGYINPYNDAIKYNEKFTGRVTITRDTSASTAYMELSSLRSEDTAVYYCAREGDFYANYGRLGFAYWGQGTLVTVSS
VL: DIQMTQSPSSLSASVGDRVTITCRASQDITNYLNWYQQKPGKAPKLLIYYTSRLHSGVPSRFSGSGSGTDYTFTISSLQPEDIATYFCQQGATFPRTFGGGTKVEIK
Regarding B5, in experiment [9], the “FACS (MFI)” value is 27300 MFI.

B6: h140Hm13/h140Lm9 (antibody, V domains shown)
VH: EVQLVQSGAEVKKPGASVKVSCKASGYKFTNYVMSWVRQAPGQRLEWMGYINPYNDAIKYNEKFTGRVTITRDTSASTAYMELSSLRSEDTAVYYCAREGDFYANYGRLGFAYWGQGTLVTVSS
VL: DIQMTQSPSSLSASVGDRVTITCRASQDITNYLNWYQQKPGKAPKLLIYYTSRLHSGVPSRFSGSGSGTDYTFTISSLQPEDIATYFCQQGAGRPRTFGGGTKVEIK
notes: also called h140Lmut9; mut9
B6: the “FACS (MFI)” value in experiment [9] stood at 17700 MFI; in experiment [10] it was 34600 MFI.

B7: h140Hm13/h140Lm6 (antibody, V domains shown)
VH: EVQLVQSGAEVKKPGASVKVSCKASGYKFTNYVMSWVRQAPGQRLEWMGYINPYNDAIKYNEKFTGRVTITRDTSASTAYMELSSLRSEDTAVYYCAREGDFYANYGRLGFAYWGQGTLVTVSS
VL: DIQMTQSPSSLSASVGDRVTITCRASQDITNYLNWYQQKPGKAPKLLIYYTSRLHSGVPSRFSGSGSGTDYTFTISSLQPEDIATYFCQQGDGFPRTFGGGTKVEIK
As for B7, in experiment [9], the “FACS (MFI)” value was found to be 27200 MFI.

B8: h140Hm13/h140Lm7 (antibody, V domains shown)
VH: EVQLVQSGAEVKKPGASVKVSCKASGYKFTNYVMSWVRQAPGQRLEWMGYINPYNDAIKYNEKFTGRVTITRDTSASTAYMELSSLRSEDTAVYYCAREGDFYANYGRLGFAYWGQGTLVTVSS
VL: DIQMTQSPSSLSASVGDRVTITCRASQDITNYLNWYQQKPGKAPKLLIYYTSRLHSGVPSRFSGSGSGTDYTFTISSLQPEDIATYFCQQGDTRPRTFGGGTKVEIK
B8: the “FACS (MFI)” value in experiment [9] came out at 16700 MFI; in experiment [10], 40200 MFI.

B9: 1F8 (antibody, human IgG4, V domains shown)
VH: KVQLVESGGGLVKPGGSLRLSCAASGFTFSNAWMNWVRQAPGKGLEWVGRIKRKTDGETTDYAAPVKGRFSISRDDSKNTLYLQMNSLKTEDTAVYYCAGSNRAFDIWGQGTMVTVSA
VL: DIVMTQSPDSLAVSLGERATINCKSSQSVLYSSNNRNYLAWYQQKPGQPPKLLINQASTRASGVPDRFSGSGSGTEFTLIISSLHAEDVAIYYCQQYYTPPLAFGGGTKLEIK
notes: also called anti-CD47 antibody 1F8; control anti-CD47 monoclonal antibody 1F8
Turning to B9, the “EC50 (read off the curve)” value in experiment [11] was 2 to 3 nM.

Values taken from patent US20230406921A1 (MABWELL SHANGHAI BIOSCIENCE, published 2023).
